# Assay results taken from US20250011363A1, “OPTIMIZED SHORTENED PEPTIDE THAT BINDS TO ACETYLCHOLINE RECEPTOR, AND USE THEREOF” (SKINMED CO., LTD., priority 2021, published 2025).
# Target: acetylcholine receptor (Homo sapiens, UniProt P02708)
# Experiment: SPR binding affinity (RU) of optimized 5mer/6mer/7mer peptides, Examples 6-7
# Settings: 6mer-1 Top sequence; SPR; peptides tested at 10 μM
# Method in brief: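 Binding response (RU) to the human acetylcholine receptor was measured by SPR. Each 5mer or 6mer library peptide was applied at 10 μM, with sequences drawn from top and bottom amino-acid combinations.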
# Sequence of acetylcholine receptor (P02708 21-457): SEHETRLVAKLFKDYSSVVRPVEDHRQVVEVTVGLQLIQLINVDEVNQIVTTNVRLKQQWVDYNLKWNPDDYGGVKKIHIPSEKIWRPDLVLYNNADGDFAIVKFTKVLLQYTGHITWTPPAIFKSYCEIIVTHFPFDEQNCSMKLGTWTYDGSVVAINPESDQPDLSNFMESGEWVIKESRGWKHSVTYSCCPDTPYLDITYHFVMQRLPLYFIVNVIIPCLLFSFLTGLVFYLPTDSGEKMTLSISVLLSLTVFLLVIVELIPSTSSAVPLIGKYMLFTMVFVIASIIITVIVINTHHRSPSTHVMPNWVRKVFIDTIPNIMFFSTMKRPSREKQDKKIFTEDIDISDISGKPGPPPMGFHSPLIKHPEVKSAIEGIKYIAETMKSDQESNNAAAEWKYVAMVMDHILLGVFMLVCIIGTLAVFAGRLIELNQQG
row,Substance,Binding affinity [Ru]
1,6mer-1-352 (RKVFRK),142
2,6mer-1-397 (KRLILR),125
3,6mer-1-365 (KKRICK),142
4,6mer-1-374 (KKQFQK),148
5,6mer-1-393 (KRLYYK),148
6,6mer-1-339 (KKSIQK),147
7,6mer-1-231 (KRQRTK),136

# Same assay, conditions: 6mer-2 Top sequence; SPR; peptides tested at 10 μM
row,Substance,Binding affinity [Ru]
1,6mer-2-33 (RQFRKK),142
2,6mer-2-157 (RSYRKK),153
3,6mer-2-11 (RQYQRR),121
4,6mer-2-153 (RVYSRR),124
5,6mer-2-60 (RRLSKK),148
6,6mer-2-138 (KQRRRK),153
7,6mer-2-144 (KSIRRK),133
8,6mer-2-202 (RLIYKK),122

# Same assay, conditions: SPR, Resonance Units; 5mer Bottom sequence (bottom combinations); peptides tested at 10 μM
row,Substance,Binding affinity [Ru]
1,5mer-776 (RCDFR),17
2,5mer-960 (RNPGK),14
3,5mer-675 (RKPGR),31
4,5mer-769 (KTEWK),32
5,5mer-696 (RCEHR),11
6,5mer-904 (KPDPK),23
7,5mer-939 (KMHAR),24
8,5mer-786 (RFNKK),29
9,5mer-766 (RNMEK),30
10,5mer-721 (RYSKK),22
11,5mer-627 (KMSPK),30
12,5mer-1012 (RHKVR),22
13,5mer-1026 (RNAVR),20
14,5mer-943 (KDKGK),12
15,5mer-726 (KATMK),33
16,5mer-1088 (KAKKK),16

# Same assay, conditions: SPR, Resonance Units; peptides tested at 10 μM; 6mer-1 Bottom sequence
row,Substance,Binding affinity [Ru]
1,6mer-1-1028 (RRHCWR),36
2,6mer-1-1180 (KRPPPK),34
3,6mer-1-1065 (KRDKAK),23
4,6mer-1-1107 (KRCPPR),36
5,6mer-1-1196 (KKTTGR),25
6,6mer-1-1188 (RRMNER),41
7,6mer-1-1031 (RKDTHK),38
8,6mer-1-1113 (RRCTMK),28
9,6mer-1-1047 (RKATDK),30
10,6mer-1-1145 (RRDCKK),40

# Same assay, conditions: SPR, Resonance Units; peptides tested at 10 μM; 6mer-1 Bottom sequence (Table 11)
row,Substance,Binding affinity [Ru]
1,6mer-1-725 (KKDKPK),32
2,6mer-1-611 (KKNCHK),23
3,6mer-1-692 (RKNTHK),22
4,6mer-1-778 (RRDDFR),28
5,6mer-1-763 (RRDCAK),12
6,6mer-1-718 (RKFKAR),23
7,6mer-1-719 (KKDAEK),27
8,6mer-1-638 (KKESHR),20

# Same assay, conditions: SPR, Resonance Units; peptides tested at 10 μM; 6mer-2 Bottom sequence
row,Substance,Binding affinity [Ru]
1,6mer-2-925 (RASVKR),23
2,6mer-2-832 (KYHNRR),32
3,6mer-2-676 (KCTAKK),14
4,6mer-2-817 (KCNDKK),22
5,6mer-2-715 (RATHRK),32
6,6mer-2-692 (KYTNRR),29
7,6mer-2-672 (KIDDRK),20
8,6mer-2-942 (KTDKRK),22
9,6mer-2-611 (RIKMRR),22
10,6mer-2-643 (KANPKK),12
11,6mer-2-829 (KKKIRR),22
12,6mer-2-762 (KFEERK),24
13,6mer-2-782 (KPWPKR),18
14,6mer-2-919 (KAKHKR),27
15,6mer-2-635 (KECVRR),11
16,6mer-2-743 (KHTMKR),18
17,6mer-2-771 (KITARR),26
18,6mer-2-968 (RHWEKK),39
19,6mer-2-813 (KKMDRR),29
20,6mer-2-704 (KDWHRK),20
21,6mer-2-661 (RMKAKK),29

# Same assay, conditions: SPR, Resonance Units; peptides tested at 10 μM; 6mer-2 Top sequence
row,Substance,Binding affinity [Ru]
1,6mer-2-546 (RVFTKK),127
2,6mer-2-501 (KSYSKK),144
3,6mer-2-412 (KRFLKK),139
4,6mer-2-591 (KGILRR),146
5,6mer-2-473 (RGRLRK),131
6,6mer-2-433 (RWIQKR),139

# Same assay, conditions: SPR, Resonance Units; peptides tested at 10 μM; 6mer-2 Top sequence (Table 12)
row,Substance,Binding affinity [Ru]
1,6mer-2-239 (RGQYKK),125
2,6mer-2-309 (KRRRRR),151
3,6mer-2-213 (KSILRR),142
4,6mer-2-395 (KWRYRR),148
5,6mer-2-256 (KSQQKR),142
6,6mer-2-272 (KWRSRK),154
7,6mer-2-354 (RWISKK),135
8,6mer-2-255 (RLRRKK),139
9,6mer-2-329 (RVYTKR),142
10,6mer-2-277 (RLRYRK),128
11,6mer-2-398 (RQQRRR),141
12,6mer-2-359 (RLFCKK),136

# Same assay, conditions: SPR, peptides at 10 μM; 6mer-2 Bottom sequence
row,Substance,Binding affinity [Ru]
1,6mer-2-1116 (KMEVKK),31
2,6mer-2-1053 (KEMGKK),34
3,6mer-2-1070 (RPHVRR),31
4,6mer-2-1148 (KEKGKR),34
5,6mer-2-1074 (RPMGRK),33
6,6mer-2-1040 (KYAWRK),36
7,6mer-2-1076 (RYCIRR),34
8,6mer-2-1030 (RAPFKK),28

# Same assay, conditions: SPR, peptides tested at 10 μM; 5mer Top sequence
row,Substance,Binding affinity [Ru]
1,5mer-15 (KGVCK),75
2,5mer-476 (RSICK),70
3,5mer-460 (RLQQR),74
4,5mer-46 (KRQCK),76
5,5mer-333 (RVLQR),67
6,5mer-484 (RSFQK),51
7,5mer-464 (RGVTR),57
8,5mer-29 (KGFCR),63
9,5mer-189 (RLLQK),65
10,5mer-418 (RWRTR),53
11,5mer-487 (RLVTK),62
12,5mer-204 (RQFQR),84
13,5mer-451 (RQVLK),53
14,5mer-16 (KLYTK),66
15,5mer-422 (KWICK),87

# Same assay, conditions: SPR, peptides tested at 10 μM; 5mer Top sequence (top combinations)
row,Substance,Binding affinity [Ru]
1,5mer-573 (RSIYR),84
2,5mer-270 (RSQQR),52
3,5mer-594 (KQYSR),50
4,5mer-280 (KWILK),53
5,5mer-584 (KQIQK),76
6,5mer-297 (RSLRK),81
7,5mer-258 (KRQYK),84

# Same assay, conditions: SPR, peptides tested at 10 μM; 6mer-1 Bottom sequence (Table 11)
row,Substance,Binding affinity [Ru]
1,6mer-1-839 (KRNWAK),29
2,6mer-1-974 (RKPAHK),27
3,6mer-1-959 (KKIWFR),36
4,6mer-1-982 (KRCPDR),35
5,6mer-1-825 (RKEKWK),30
6,6mer-1-911 (KRCAAR),28
7,6mer-1-798 (RRDCFR),18

# Same assay, conditions: SPR, peptides tested at 10 μM; 6mer-1 Top sequence
row,Substance,Binding affinity [Ru]
1,6mer-1-440 (KRVYSK),153
2,6mer-1-592 (RRWLSK),135
3,6mer-1-425 (RKGVQK),131
4,6mer-1-517 (KKGLCK),139
5,6mer-1-523 (KRRRSK),139
6,6mer-1-572 (KRVLLK),126
7,6mer-1-600 (KRGYCR),139

# Same assay, conditions: SPR, peptides tested at 10 μM; 6mer-1 Top sequence (top combinations)
row,Substance,Binding affinity [Ru]
1,6mer-1-190 (RKLYYR),153
2,6mer-1-146 (KRGRRR),139
3,6mer-1-85 (RKRQCK),121
4,6mer-1-23 (KRSVSR),153
5,6mer-1-125 (KRRLCR),135
6,6mer-1-126 (KKWIQR),148
7,6mer-1-186 (RRRVYK),147
8,6mer-1-38 (RRQQTK),126

# Same assay, conditions: SPR; XRRGVRR-7mer and RRGVRRX-7mer
row,Substance,"Binding affinity, values relative to the RRGVRR sequence"
1,3670 (RRGVRRF) [compound 3670],137
2,3674 (RRGVRRN) [compound 3674],105

# Same assay, conditions: SPR; XRRQRR-6mer and RRQRRX-6mer
row,Substance,"Binding affinity, relative value to the RRQRR sequence"
1,3620 (ERRQRR) [compound 3620],147
2,3615 (QRRQRR) [compound 3615],105

# Same assay, conditions: SPR; peptides tested at 10 μM; 5mer Bottom sequence
row,Substance,Binding affinity [Ru]
1,5mer-1172 (KIWWR),25
2,5mer-881 (RNDAK),31
3,5mer-872 (RKKWK),29
4,5mer-1144 (KAKNR),33
5,5mer-850 (KYDIR),13
6,5mer-817 (RHKDR),23
